Measured values: the supplement of paper PMC10567573

B1: TPRG1 (parent)
chain: ETIQGFWLLTKIDHWNNEKERILL

Variants of: B1
Assay: protein stability index of a GFP-peptide fusion (GPS, HEK-293T) (PSI 1-6); higher = more stable
Details: c terminus: a fixed tail appended
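Further: lentivirally expressed fusions sorted by FACS into six bins by GFP to DsRed ratio, PSI derived from sequencing read proportions per bin multiplied by bin number.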

Protein stability index of substitutions, site by site:
Q4: M 3.23; Y 2.77; H 1.97; E 2.23; N 1.82; G 2.68; D 3.98; P 3.54
E1: I 3.09; P 2.65; L 4.7; D 2.8; N 2.13; A 2.75; Q 3.37; H 2.48; S 2.85; V 4.74; T 1.82
T2: P 1.61; D 1.91; K 2.22; N 2.16; R 3.03; H 1.67; E 2.51; C 1.55; Q 2.82; Y 3.19; L 1.67
F6: T 2.69; Q 1.91; N 2.11; R 1.91; C 3.16; W 1.12; Y 2.51; D 1.72; K 1.3; P 1.74; M 1.48; S 2.37; H 1.94; G 1.97; E 2.25; V 2.36
W7: T 1.51; K 1.86; N 2.18; P 2.56; R 2.23; E 1.93; Q 1.83; D 2.25; M 3.58; G 2.31; A 1.91; C 3.25; L 2.08; H 1.04; S 2.1
G5: K 2.04; S 2; I 1.69; Q 1.98; Y 2.95; C 3.97; L 1.38; H 2.36; W 3.06; P 2.33
I3: L 1.53; V 3.9; G 2.14; D 1.39; Y 2.55; S 1.28; N 1.71; E 2.04; Q 1.99; R 1.88; P 2.05; T 2.18; C 2.25
